Assay [1] concerns APP co-expressed in mouse neuron cell line N2A. Kind of assay: α-CTF produced by APP co-expressed in N2A cells (Western blot). It is filed as cell-based. As to the method: (§1) Plasmids were transfected in HEK 293T or N2A cells for 36-48 hours and then lysed in cell lysis buffer [10% 1M tris-HCl (pH=6.8), 4% SDS, 20% glycerol, 0.01% bromophenol blue]. Lysates were shaken at room temperature for 10 min, then boiled for 10 min, and centrifuged at 12,000×g for 10 min. Proteins were run on 8% or 12% Tris-glycine SDS-PAGE and transferred to PVDF membranes (Life Technologies). Samples were incubated overnight at 4° C. with primary antibody diluted in 5% BSA buffer (in 1×TBST). After washing 3 times with 1×TBST, they were incubated with secondary antibody diluted in 5% BSA buffer (in 1×TBST) for 2 hours at room temperature. Finally, after washing 3 times with 1×TBST, the signal was detected by ECL Western blotting substrate (Solarbio, PE0010).
(§2) Data were analyzed by GraphPad Prism software (v6) using unpaired, paired, or one-sample t-tests. Aβ40 and Aβ42 levels were normalized to the corresponding GFP controls. α-CTF levels were normalized to FL-APP and corresponding GFP controls. All data are represented as mean±SEM. Statistical significance was defined as p<0.05. One, two, three and four stars (*) in the graph indicate p-values <0.05, <0.01, <0.001 and <0.0001, respectively.

The subject of another assay is APPΔΔICD. The assay is described as follows: Aβ40 produced from APPΔΔICD co-expressed with BACE1 in HEK 293T cells (ELISA). It is filed as cell-based, human. Here is the method: The experiment was performed according to the standard procedure in the ELISA analysis kit of Invitrogen Company. • a) The target protein was expressed in HEK 293T cell line. Cells were subcultured one day before transfection, and transfection was performed when the degree of cell adhesion reached 70%-80%. […]
48 hours after transfection of HEK 293T cells and N2A cells, or 4.5 days after lentivirus infection of neurons, media and lysates were collected. Aβ40 and Aβ42 in the culture medium and cell lysates were detected by an Aβ ELISA kit as indicated in the protocol. […]
For orientation: An ELISA detects its analyte on a solid surface through an enzyme-linked reagent.

Another assay has as its system mouse APP (mAPP). The assay is described as follows: α-CTF produced by mouse APP (mAPP) expressed in HEK 293T cells. It counts as cell-based. Particulars: HEK 293T cells transiently expressing mAPP. Here is the method: as §1
The next assay has as its system APP. The assay is described as follows: Cell surface expression of APP in HEK 293T cells (surface biotinylation, Western blot). It is filed as cell-based. As to the method: FIGS. 29A-29K show ApoE CT is still able to regulate APP metabolism when α- or β-secretase is inhibited. […] N=9. FIGS. 29C-29D show ELISA assay and statistical analysis of Western blot assay for the effects of ApoE CT on Aβ production from co-expressed APP and BACE1 in HEK 293T cells treated with 1 μM ADAM10 inhibitor GI254023X; control group received no inhibitor treatment. FIG. 29C: Aβ40 in cell culture medium; FIG. 29D: Aβ40 in cell lysates. N=6. FIGS. 29E-29F show Western blot detection and statistical analysis of the effects of ApoE CT on the production of α-CTF from co-expressed APP in HEK 293T cells treated with 5 μM BACE1 inhibitor AZD3839; the control group received no inhibitor treatment. N=10. FIGS. 29G-29H show Western blot detection and statistical analysis of α-CTF produced by co-expressing APPM596V and GFP or ApoE CT in HEK 293T cells, respectively. N=7. […] Cell surface proteins of HEK 293T cells expressing GFP(−) and ApoE CT(+) were labeled with sulfo-N-hydroxysuccinimide-biotin and isolated with streptavidin-coupled agarose beads.
On the technique in general: In western blotting, separated proteins are transferred to a membrane and probed.

The subject of assay [2] is human APP co-expressed in HEK 293T cells. The assay is described as follows: α-CTF produced by APP co-expressed in HEK 293T cells (Western blot). It counts as cell-based. The conditions noted are these: for α-CTF produced by co-expressed APP: Western blot. Here is the method: • a) A plasmid expressing the target protein in mammalian cells was constructed, and the protein expression promoter is CAG. • b) The target protein was expressed in HEK 293T cell line. Cells were subcultured one day before transfection, and transfection was performed when the degree of cell adhesion reached 70%-80%. The transfection reagent was lipofectamine2000 (ThermoFisher). • c) 4-6 hours post transfection, the medium were replaced with fresh cell culture medium. • d) 36-48 hours post transfection, the cells were lysed (10% 1M tris-HCl (pH=6.8), 4% SDS, 20% glycerol, 0.01% bromophenol blue), and the protein samples were collected and used for Western blot or stored in a −80° C. freezer. • e) Polyacrylamide gel electrophoresis. Before protein loading, the protein was boiled at 98° C. for 10 min, and then centrifuged at 12000 rpm for 10 min. Electrophoresis: 80V for the upper stacking gel; 120V for the lower separating gel. • f) Protein transfer. The filter paper was soaked in the electrophoresis solution before use, and the PVDF membrane was put in methanol for 10s to activate, and the gel after electrophoresis was taken out from the electrophoresis tank, put in the order of filter paper—PVD membrane—gel-filter paper from bottom to top, and they were put into the transfer instrument, with transferring in constant current at 0.1 A for 70 min. • g) Blocking and antibody incubation: the transferred PVDF membrane was placed in 5% BSA/TBST blocking solution, and blocked on a shaker at room temperature for 1 hour. The primary antibody was used to incubate at 4° C. overnight on a shaker (12-16 h); 1×TBST was used to wash three times, once every 10 minutes; the secondary antibody was used to incubate, shaked at room temperature for 1-2 h; 1×TBST was used to wash three times, once every 10 minutes. • h) Imaging by development: development was performed with ECL chemiluminescence hypersensitive chromogenic reagent.
as §1, §2

Entries after “also recorded” stand apart in the source; their conditions may differ.

B1: ApoE CT: C-terminal fragment of ApoE, positions 216-299 of SEQ ID NO: 12; SEQ ID NO: 33 (protein)
chain: ARMEEMGSRTRDRLDEVKEQVAEVRAKLEEQAQQIRLQAEAFQARLKSWFEPLVEDMQRQWAGLVEKVQAAVGTSAAPVPSDNH
With B1, the “level of α-CTF compared with ApoE2” value in assay [1] and in assay [2] was “significantly increases the level of α-CTF” each time. The “α-CTF produced by co-expressed APP” value in assay [1] (Western blot, vs GFP control) is given as “significantly increases α-CTF”; in assay [2] (vs GFP control) it was “significantly increased α-CTF; also recorded: increased the α-CTF”; in assay [2] (vs GFP control, listed as human ApoE CT) it was “also increase α-CTF”. Besides, the “Aβ40 produced by APPΔΔICD” value in the assay on APPΔΔICD is recorded as “no longer reduces Aβ produced by APPΔΔICD; also recorded: does not affect Aβ40; also recorded: failed to reduce Aβ40”. Also, the “α-CTF levels from mouse APP” value in the assay on mouse APP (mAPP) was “increases α-CTF levels”. In addition, the “APP expression on the cell surface” value in the assay with APP was “did not alter APP expression on the cell surface”. In assay [2] (1 μM ADAM10 inhibitor GI254023X), the “increase of α-CTF in the presence of GI254023X” value is reported as “approximately 4 fold”. Also, in assay [2] (1 μM γ-secretase inhibitor PF03084014), the “α-CTF in the presence of PF03084014” value was “failed to further increase α-CTF”. For the same molecule, the “α-CTF when β-secretase inhibited by AZD3839” value in assay [2] (5 μM AZD3839) is “still increases α-CTF”. In addition, the “α-CTF produced by APP co-expressed with PS1” value in assay [2] (APP and PS1 co-expressed, PF03084014 at 1 μM) is “significantly increases α-CTF; also recorded: can increase the production of α-CTF”. For the same molecule, the “γ-cleavage of APP (α-CTF) when co-expressed with γ-secretase” value in assay [2] (APP, γ-secretase and ApoE CT co-expressed) is listed as “still inhibited γ-cleavage of APP”. Moreover, the “increase in α-CTF levels” value in assay [2] (vs GFP control) is recorded as “more than 6 fold”. Besides, the α-CTF level entry in assay [2] (vs GFP control) is recorded as “more than 5 times the original level”.

The record behind these values is patent publication US20250108100A1, “C-TERMINAL FRAGMENT OF APOLIPOPROTEIN E AND APPLICATION THEREOF IN INHIBITING y-SECRETASE ACTIVITY” (SYNPHATEC (SHANGHAI) BIOPHARMACEUTICAL TECHNOLOGY CO., LTD., priority 2022, published 2025).
